Values quoted from earlier work, collected in patent US20260109963A1, “COMPOSITIONS, SYSTEMS, AND METHODS FOR REDUCING ADIPOSE TISSUE” (Oisin Biotechnologies, Inc., priority 2023, published 2026).

Test system: Heart
Settings: almost completely abrogated after IV delivery

B1: miR1d: miRNA/target site de-targeting heart & skeletal muscle (nucleic acid)
chain: GGCCGGCCAATACATACTTCTTTACATTCCACGATAATACATACTTCTTTACATTCCAACCGGTAATACATACTTCTTTACATTCCATCACAATACATACTTCTTTACATTCCAGGCCGGCC
modifications: listed as DNA, chemistry not fully specified; the letters are possibly those of the target site
notes: miRNA/target site de-targeting heart & skeletal muscle
transgene expression in heart (in words): Transgene expression in heart almost
